Results reported in article PMC7265302 (Nature Communications, 2020).

Tests used:
Lpg2149, wild type = Lpg2149, wild type (Legionella pneumophila, UniProt Q5ZTL2 1-119); test: ITC; conditions: both partners purified
Lpg2149 (aa 9–119) = Lpg2149 (aa 9–119) (Legionella pneumophila, UniProt Q5ZTL2 9-119); test: crystal structure; conditions: both partners purified

Binder	Kd (Lpg2149, wild type)	binding result (Lpg2149 (aa 9–119))
MvcA, wild type (enzyme) MIVRGINMTKIKLESPGFMVHKKLKSMSQSYGVMMTGVPAEVLGQMQAERSIPSINKTGNLKQQIAKEVSKVCHMMTEPTQSCGQASNDVCELLLGKIEAEKFHFTKYEALSADGDNLKNVLENTAPSSTNLLIRFEIDREDPPIVLVKTKNENFNPETAVKNKIYLLENKLYFIDKMGNLFNLGPGKKKCTQLFNAIGDSAEYSLCDPFVLEEPEKPEDFAISEIVDIFNEQKERFDFWIGSHSFTIYIPQTLGESPRQFYPYQAYFGSHTLQDWFVSDKDEYLSRIGIDKYIEKLAVLGKTTNTKERSDIYAEFFSKRGREAFFCAHLNEKRQPLRVKFKITEINPELALKNLQETQEFIDTHPGENPSDKVENYRNRAKLAMTEHLESLLDIKPESSPSLFWKNVDKKEQEMTDSSRYKKGPS	~28.1 nM	–
MvcA (aa 1–400) (enzyme) MIVRGINMTKIKLESPGFMVHKKLKSMSQSYGVMMTGVPAEVLGQMQAERSIPSINKTGNLKQQIAKEVSKVCHMMTEPTQSCGQASNDVCELLLGKIEAEKFHFTKYEALSADGDNLKNVLENTAPSSTNLLIRFEIDREDPPIVLVKTKNENFNPETAVKNKIYLLENKLYFIDKMGNLFNLGPGKKKCTQLFNAIGDSAEYSLCDPFVLEEPEKPEDFAISEIVDIFNEQKERFDFWIGSHSFTIYIPQTLGESPRQFYPYQAYFGSHTLQDWFVSDKDEYLSRIGIDKYIEKLAVLGKTTNTKERSDIYAEFFSKRGREAFFCAHLNEKRQPLRVKFKITEINPELALKNLQETQEFIDTHPGENPSDKVENYRNRAKLAMTEHLESLLDIKPESS	–	binds
